Results: publication PMC2893164, “Structural Basis of Gate-DNA Breakage and Resealing by Type II Topoisomerases”

Target: ParC55 (topoisomerase IV ParC breakage-reunion domain);ParE30 (topoisomerase IV ParE TOPRIM domain) (Streptococcus pneumoniae;Streptococcus …, UniProt P72525;Q59961 1-488;404-647, |)
Assay: X-ray crystallography (3.1 A); PD 0305970 (two intercalated), Mg2+; cleaved DNA, covalent Tyr118; Complex: 20 mM Tris-HCl pH 7.0, 200 then 75 mM NaCl, 10% glycerol, 1 mM b-mercaptoethanol, 20 mM MgCl2, 0.05% NaN3, PD 0305970, room temperature; crystals: 50 mM Na cacodylate pH 6.5, 2.5% Tacsimate pH 7.0, 62.5 mM KCl, 7.5 mM MgCl2, 4-6% isopropanol; data at 100 K
Conditions: protein: recombinant;recombinant; tags: C-terminal His tag;N-terminal His tag; chain copies: 2;2; blunt

ParC55 (topoisomerase IV ParC breakage-reunion domain);ParE30 (topoisomerase IV ParE TOPRIM domain), sequence (P72525 1-488, chain 1 of 2): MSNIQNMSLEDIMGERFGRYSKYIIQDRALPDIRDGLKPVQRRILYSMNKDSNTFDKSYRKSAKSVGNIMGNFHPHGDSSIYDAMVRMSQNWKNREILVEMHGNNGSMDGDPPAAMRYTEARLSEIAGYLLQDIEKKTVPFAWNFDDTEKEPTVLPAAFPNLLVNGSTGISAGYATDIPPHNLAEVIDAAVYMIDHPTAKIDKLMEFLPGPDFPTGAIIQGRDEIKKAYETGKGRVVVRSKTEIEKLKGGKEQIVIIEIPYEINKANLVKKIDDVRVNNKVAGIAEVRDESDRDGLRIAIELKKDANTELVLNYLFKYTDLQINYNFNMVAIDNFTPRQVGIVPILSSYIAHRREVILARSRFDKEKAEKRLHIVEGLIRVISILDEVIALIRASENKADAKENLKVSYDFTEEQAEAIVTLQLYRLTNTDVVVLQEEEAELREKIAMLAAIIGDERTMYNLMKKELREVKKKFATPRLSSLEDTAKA
ParC55 (topoisomerase IV ParC breakage-reunion domain);ParE30 (topoisomerase IV ParE TOPRIM domain), sequence (Q59961 404-647, chain 2 of 2): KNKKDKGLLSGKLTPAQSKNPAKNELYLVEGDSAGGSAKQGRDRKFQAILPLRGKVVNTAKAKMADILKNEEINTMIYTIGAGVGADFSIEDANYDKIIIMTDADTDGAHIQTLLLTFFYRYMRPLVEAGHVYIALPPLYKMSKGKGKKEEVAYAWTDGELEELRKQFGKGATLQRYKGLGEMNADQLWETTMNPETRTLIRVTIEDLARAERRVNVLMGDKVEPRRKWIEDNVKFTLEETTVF

B1: 34-bp E-site G-segment DNA (dsDNA)
DNA 1: ACCAAGGTCATGAATGACTATGCACGTAAAACAG
DNA 2: CTGTTTTACGTGCATAGTCATTCATGACCTTGGT
modifications: none (cleaved with 4-bp stagger in the complex, or resealed, by row)
- binding result: binds
